The target of the assay is RGA5_S (RGA5 982-1116), small C-terminal fragment of RGA5 carrying the HMA domain (rice) (UniProt F7J0N2). Description: SEC. On the technique in general: SEC sorts molecules by how far they enter the pores of the column.
Sequence of UniProt F7J0N2 (F7J0N2 982-1116): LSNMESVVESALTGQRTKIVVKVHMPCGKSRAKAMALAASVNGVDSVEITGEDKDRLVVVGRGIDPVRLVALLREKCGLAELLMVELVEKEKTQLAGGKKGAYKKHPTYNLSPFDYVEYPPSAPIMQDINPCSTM

Turning to “dSP-AVR1-CO39 (AVR1-CO39 with its signal peptide deleted), wild type, recombinant (natural protein)”, the stoichiometry N was found to be 1.

As a reminder, the stoichiometry N is a count of units in the complex or per binding partner.

(Values after article PMC6233088.)
